We go through two variants from IntAct's records for PubMed 22510990.

B1: Protein Niban 1 (Homo sapiens), Q9BZQ8 (parent)
chain: MGGSASSQLDEGKCAYIRGKTEAAIKNFSPYYSRQYSVAFCNHVRTEVEQQRDLTSQFLKTKPPLAPGTILYEAELSQFSEDIKKWKERYVVVKNDYAVESYENKEAYQRGAAPKCRILPAGGKVLTSEDEYNLLSDRHFPDPLASSEKENTQPFVVLPKEFPVYLWQPFFRHGYFCFHEAADQKRFSALLSDCVRHLNHDYMKQMTFEAQAFLEAVQFFRQEKGHYGSWEMITGDEIQILSNLVMEELLPTLQTDLLPKMKGKKNDRKRTWLGLLEEAYTLVQHQVSEGLSALKEECRALTKGLEGTIRSDMDQIVNSKNYLIGKIKAMVAQPAEKSCLESVQPFLASILEELMGPVSSGFSEVRVLFEKEVNEVSQNFQTTKDSVQLKEHLDRLMNLPLHSVKMEPCYTKVNLLHERLQDLKSRFRFPHIDLVVQRTQNYMQELMENAVFTFEQLLSPHLQGEASKTAVAIEKVKLRVLKQYDYDSSTIRKKIFQEALVQITLPTVQKALASTCKPELQKYEQFIFADHTNMIHVENVYEEILHQILLDETLKVIKEAAILKKHNLFEDNMALPSESVSSLTDLKPPTGSNQASPARRASAILPGVLGSETLSNEVFQESEEEKQPEVPSSLAKGESLSLPGPSPPPDGTEQVIISRVDDPVVNPVATEDTAGLPGTCSSELEFGGTLEDEEPAQEEPEPITASGSLKALRKLLTASVEVPVDSAPVMEEDTNGESHVPQENEEEEEKEPSQAAAIHPDNCEESEVSEREAQPPCPEAHGEELGGFPEVGSPASPPASGGLTEEPLGPMEGELPGEACTLTAHEGRGGKCTEEGDASQQEGCTLGSDPICLSESQVSEEQEEMGGQSSAAQATASVNAEEIKVARIHECQWVVEDAPNPDVLLSHKDDVKEGEGGQESFPELPSEE

Variants of B1 are the subject of the first test. Particulars: with npm_human NPM1, P06748.
Sequence of npm_human NPM1, P06748 (P06748 whole entry): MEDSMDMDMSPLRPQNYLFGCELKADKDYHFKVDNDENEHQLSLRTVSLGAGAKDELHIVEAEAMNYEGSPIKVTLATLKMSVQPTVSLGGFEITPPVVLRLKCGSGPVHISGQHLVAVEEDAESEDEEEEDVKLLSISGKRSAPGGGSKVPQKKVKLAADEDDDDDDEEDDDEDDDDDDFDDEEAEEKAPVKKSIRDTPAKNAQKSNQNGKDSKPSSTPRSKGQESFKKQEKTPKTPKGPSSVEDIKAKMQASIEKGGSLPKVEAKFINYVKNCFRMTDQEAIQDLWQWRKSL
In the case of S602A, the “effect of a mutation on the interaction” value was “decreasing interaction”.

The variants in a further test derive from B1. To be noted: with npm_human NPM1, P06748. The source holds these as a separate data set.
For the variant S602D, the “effect of a mutation on the interaction” value is given as “increasing interaction”.
